Experimental findings from US6060513A, “Compounds and compositions for delivering active agents” (Emisphere Technologies, Inc., priority 1997, dated 2000) are described below.

The nature of the data set: In Vivo Interferon Delivery (ELISA for human interferon). Also noted: species or system Rats. The note with it: 1 mg/kg interferon, no carrier.

Turning to interferon, the “Mean peak serum interferon concentration” value stood at 79±100 (IC) and 1951±1857 (PO).
